Source: FireProtDB (doi:10.1021/bi952198j)
Several values for one entry are separate records, joined by “and”; a condition that tells them apart may be missing. Equal values may be shown once.

Settings: Aspergillus oryzae (strain ATCC 42149 / RIB 40), Thermal, DSC, reversible: yes, whole UniProt chain shown

B1: Guanyl-specific ribonuclease T1 wild type, P00651 (protein)
chain: MMYSKLLTLTTLLLPTALALPSLVERACDYTCGSNCYSSSDVSTAQAAGYQLHEDGETVGSNSYPHKYNNYEGFDFSVSSPYYEWPILSSGDVYSGGSPGADRVVFNENNQLAGVITHTGASGNNFVECT
Tm (pH 2, glycine 50 mM): 34.9 °C | heat capacity change of unfolding (pH 2, glycine 50 mM): 1.33 kcal/mol/K | unfolding enthalpy (calorimetric) (pH 2, glycine 50 mM): 62.1 kcal/mol | unfolding enthalpy (van 't Hoff) (pH 2, glycine 50 mM): 78.9 kcal/mol | Tm (pH 2.4, glycine 50 mM): 41.4 °C | heat capacity change of unfolding (pH 2.4, glycine 50 mM): 0.53 kcal/mol/K | unfolding enthalpy (calorimetric) (pH 2.4, glycine 50 mM): 67.5 kcal/mol | unfolding enthalpy (van 't Hoff) (pH 2.4, glycine 50 mM): 87.3 kcal/mol | Tm (pH 2.5, glycine 50 mM): 45.8 °C | heat capacity change of unfolding (pH 2.5, glycine 50 mM): 0.7 kcal/mol/K | unfolding enthalpy (calorimetric) (pH 2.5, glycine 50 mM): 82.5 kcal/mol | unfolding enthalpy (van 't Hoff) (pH 2.5, glycine 50 mM): 90.4 kcal/mol | Tm (pH 2.75, glycine 50 mM): 48.5 °C | heat capacity change of unfolding (pH 2.75, glycine 50 mM): 0.04 kcal/mol/K | unfolding enthalpy (calorimetric) (pH 2.75, glycine 50 mM): 83.8 kcal/mol | unfolding enthalpy (van 't Hoff) (pH 2.75, glycine 50 mM): 95.4 kcal/mol | Tm (pH 2.8, Citric acid 50 mM): 48 °C | heat capacity change of unfolding (pH 2.8, Citric acid 50 mM): 0.94 kcal/mol/K | unfolding enthalpy (calorimetric) (pH 2.8, Citric acid 50 mM): 76.3 kcal/mol | unfolding enthalpy (van 't Hoff) (pH 2.8, Citric acid 50 mM): 93.4 kcal/mol | Tm (pH 3, Citric acid 50 mM): 50.5 °C | heat capacity change of unfolding (pH 3, Citric acid 50 mM): 0.96 kcal/mol/K | unfolding enthalpy (calorimetric) (pH 3, Citric acid 50 mM): 86.9 kcal/mol | unfolding enthalpy (van 't Hoff) (pH 3, Citric acid 50 mM): 101 kcal/mol | Tm (pH 3.5, Citric acid 50 mM): 56.5 °C | heat capacity change of unfolding (pH 3.5, Citric acid 50 mM): 1.08 kcal/mol/K | unfolding enthalpy (calorimetric) (pH 3.5, Citric acid 50 mM): 94.8 kcal/mol | unfolding enthalpy (van 't Hoff) (pH 3.5, Citric acid 50 mM): 104 kcal/mol | Tm (pH 3.7, Citric acid 50 mM): 58.3 °C | heat capacity change of unfolding (pH 3.7, Citric acid 50 mM): 1.65 kcal/mol/K | unfolding enthalpy (calorimetric) (pH 3.7, Citric acid 50 mM): 98.1 kcal/mol | unfolding enthalpy (van 't Hoff) (pH 3.7, Citric acid 50 mM): 105 kcal/mol | Tm (pH 4.5, Citric acid 50 mM): 58.7 °C | heat capacity change of unfolding (pH 4.5, Citric acid 50 mM): 1.58 kcal/mol/K | unfolding enthalpy (calorimetric) (pH 4.5, Citric acid 50 mM): 96.6 kcal/mol | unfolding enthalpy (van 't Hoff) (pH 4.5, Citric acid 50 mM): 101 kcal/mol | Tm (pH 5, Citric acid 50 mM): 60.1 °C | heat capacity change of unfolding (pH 5, Citric acid 50 mM): 0.91 kcal/mol/K | unfolding enthalpy (calorimetric) (pH 5, Citric acid 50 mM): 101 kcal/mol | unfolding enthalpy (van 't Hoff) (pH 5, Citric acid 50 mM): 105 kcal/mol | Tm (pH 5.5, Citric acid 50 mM): 65.3 °C | heat capacity change of unfolding (pH 5.5, Citric acid 50 mM): 1.26 kcal/mol/K | unfolding enthalpy (calorimetric) (pH 5.5, Citric acid 50 mM): 109 kcal/mol | unfolding enthalpy (van 't Hoff) (pH 5.5, Citric acid 50 mM): 123 kcal/mol | Tm (pH 6, Citric acid 50 mM): 64.7 °C | heat capacity change of unfolding (pH 6, Citric acid 50 mM): 1.92 kcal/mol/K and 1.88 kcal/mol/K | unfolding enthalpy (calorimetric) (pH 6, Citric acid 50 mM): 114 kcal/mol | unfolding enthalpy (van 't Hoff) (pH 6, Citric acid 50 mM): 122 kcal/mol | Tm (pH 6.5, Citric acid 50 mM): 64.2 °C | heat capacity change of unfolding (pH 6.5, Citric acid 50 mM): 1.33 kcal/mol/K | unfolding enthalpy (calorimetric) (pH 6.5, Citric acid 50 mM): 115 kcal/mol | unfolding enthalpy (van 't Hoff) (pH 6.5, Citric acid 50 mM): 124 kcal/mol
